Reference: patent US20250250314A1 (XILIO DEVELOPMENT, published 2025)
Where a chain is given by its changes, count along the chain named.

B1: UCM7 (other)
heavy 1: QVQLVQSGVEVKKPGASVKVSCKASGYTFTNYYMYWVRQAPGQGLEWMGGINPSNGGTNFNEKFKNRVTLTTDSSTTTAYMELKSLQFDDTAVYYCARRDYRFDMGFDYWGQGTTVTVSSASTKGPSVFPLAPSSKSTSGGTAALGCLVKDYFPEPVTVSWNSGALTSGVHTFPAVLQSSGLYSLSSVVTVPSSSLGTQTYICNVNHKPSNTKVDKKVEPKSCDKTHTCPPCPAPELLGGPSVFLFPPKPKDTLMISRTPEVTCVVVDVSHEDPEVKFNWYVDGVEVHNAKTKPREEQYASTYRVVSVLTVLHQDWLNGKEYKCKVSNKALPAPIEKTISKAKGQPREPQVYTLPPCRDELTKNQVSLWCLVKGFYPSDIAVEWESNGQPENNYKTTPPVLDSDGSFFLYSKLTVDKSRWQQGNVFSCSVMHEALHNRFTQKSLSLSPGGGSSPPGGGSSGGGSGPAPTSSSTKKTQLQLEHLLLDLQMILNGINNYKNPKLTAMLTAKFAMPKKATELKHLQCLEEALKPLEEVLNLAQSKNFHLRPRDLISNINVIVLELKGSETTFMCEYADETATIVEFLNRWITFAQSIISTLT
heavy 2: QVQLVQSGVEVKKPGASVKVSCKASGYTFTNYYMYWVRQAPGQGLEWMGGINPSNGGTNFNEKFKNRVTLTTDSSTTTAYMELKSLQFDDTAVYYCARRDYRFDMGFDYWGQGTTVTVSSASTKGPSVFPLAPSSKSTSGGTAALGCLVKDYFPEPVTVSWNSGALTSGVHTFPAVLQSSGLYSLSSVVTVPSSSLGTQTYICNVNHKPSNTKVDKKVEPKSCDKTHTCPPCPAPELLGGPSVFLFPPKPKDTLMISRTPEVTCVVVDVSHEDPEVKFNWYVDGVEVHNAKTKPREEQYASTYRVVSVLTVLHQDWLNGKEYKCKVSNKALPAPIEKTISKAKGQPREPQVCTLPPSRDELTKNQVSLSCAVKGFYPSDIAVEWESNGQPENNYKTTPPVLDSDGSFFLVSKLTVDKSRWQQGNVFSCSVMHEALHNHYTQKSLGGPLGLGGSSGSGGSGGGSGSGGGEVQLVESGGGLVQPGGSLRLSCAASGSIFSINVMGWYRQAPGKQRELVAAISSGGSTNYADSVKGRFTISRDNAKNTVYLQMNSLKPEDTAVYYCMYASSWYEDETDYWGQGTQVTVSS
light: EIVLTQSPATLSLSPGERATLSCRASKGVSTSGYSYLHWYQQKPGQAPRLLIYLASYLESGVPARFSGSGSGTDFTLTISSLEPEDFAVYYCQHSRDLPLTFGGGTKVEIKRTVAAPSVFIFPPSDEQLKSGTASVVCLLNNFYPREAKVQWKVDNALQSGNSQESVTEQDSKDSTYSLSSTLTLSKADYEKHKVYACEVTHQGLSSPVTKSFNRGEC
B2: UCM4 (other)
heavy 1: B1 heavy 1
heavy 2: B1 heavy 2 with S443M, L444P, G445Y, G446D, P447L, L448Y, G449H, L450P
light: B1 light
B3: UCM5 (other)
heavy 1: B1 heavy 1
heavy 2: B1 heavy 2 with Q441A, K442P, S443A, L444G, G445L, G446I, P447V, L448P, G449Y, L450N
light: B1 light
B4: UCM2 (other)
heavy 1: B1 heavy 1
heavy 2: B1 heavy 2 with G445S, G446L
light: B1 light
B5: UCM6 (other)
heavy 1: B1 heavy 1
heavy 2: B1 heavy 2 with Q441P, K442A, S443N, G445V, G446A, L448D, G449P, L450G
light: B1 light
B6: UCM8 (other)
heavy 1: B1 heavy 1
heavy 2: QVQLVQSGVEVKKPGASVKVSCKASGYTFTNYYMYWVRQAPGQGLEWMGGINPSNGGTNFNEKFKNRVTLTTDSSTTTAYMELKSLQFDDTAVYYCARRDYRFDMGFDYWGQGTTVTVSSASTKGPSVFPLAPSSKSTSGGTAALGCLVKDYFPEPVTVSWNSGALTSGVHTFPAVLQSSGLYSLSSVVTVPSSSLGTQTYICNVNHKPSNTKVDKKVEPKSCDKTHTCPPCPAPELLGGPSVFLFPPKPKDTLMISRTPEVTCVVVDVSHEDPEVKFNWYVDGVEVHNAKTKPREEQYASTYRVVSVLTVLHQDWLNGKEYKCKVSNKALPAPIEKTISKAKGQPREPQVCTLPPSRDELTKNQVSLSCAVKGFYPSDIAVEWESNGQPENNYKTTPPVLDSDGSFFLVSKLTVDKSRWQQGNVFSCSVMHEALHNHYTQKSLSLPLGLGGSSGSGGSGGGSGSGGGSGGSGGEVQLVESGGGLVQPGGSLRLSCAASGSIFSINVMGWYRQAPGKQRELVAAISSGGSTNYADSVKGRFTISRDNAKNTVYLQMNSLKPEDTAVYYCMYASSWYEDETDYWGQGTQVTVSS
light: B1 light

Target: PD-1 from the PD-1 effector cells (UniProt Q15116 25-288, limits assumed)
Sequence (Q15116 25-288 limits assumed): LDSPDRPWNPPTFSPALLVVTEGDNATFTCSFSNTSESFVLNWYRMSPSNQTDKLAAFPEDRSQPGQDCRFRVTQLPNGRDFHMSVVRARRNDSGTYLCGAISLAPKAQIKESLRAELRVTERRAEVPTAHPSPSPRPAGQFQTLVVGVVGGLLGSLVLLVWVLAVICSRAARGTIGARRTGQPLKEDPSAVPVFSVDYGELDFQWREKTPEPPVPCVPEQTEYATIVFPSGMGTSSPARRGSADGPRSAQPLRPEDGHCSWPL
Test: cell-based or functional assay

| EC50 (nM), fold induction of luminescence in the PD-1/PD-L1 Blockade Bioassay [nM] | Binder |
| --- | --- |
| 1.36 | B1 |
| 1.28 | B2 |
| 1.15 | B3 |
| 0.84 | B4 |
| 1.2 | B5 |
| 1.09 | B6 |
